Assay results published in the supplement of paper PMC9112550, “Optimization of the antimicrobial peptide Bac7 by deep mutational scanning” (BMC Biology, 2022).

System: Escherichia coli TOP10
Assay: shrunken log2 fold change of peptide-encoding DNA abundance (4.5 h post-induction vs induction); higher = less antimicrobial activity (less host growth inhibition)
Conditions: time post-induction: 4.5 h; library: site-saturation at positions 5, 18, 19, 20
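Further: peptides expressed intracellularly from a pBAD plasmid library in pooled LB shake-flask culture, induced with 0.3% L-arabinose, DNA abundance read by NGS, three biological replicates, DESeq2 with apeglm shrinkage.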

| Sequence | shrunken log2 fold change |
| --- | --- |
| RRIRFRPPRLPRPRPRPYVIPRP | -0.303 |
| RRIRFRPPRLPRPRPRPYWFPRP | -0.0527 |
| RRIRFRPPRLPRPRPRPYWLPRP | -0.234 |
| RRIRFRPPRLPRPRPRPYYAPRP | -1.21 |
| RRIRFRPPRLPRPRPRPYYGPRP | -0.0202 |
| RRIRGRPPRLPRPRPRPAAQPRP | 1.12 |
| RRIRGRPPRLPRPRPRPADLPRP | 0.604 |
| RRIRGRPPRLPRPRPRPADMPRP | 0.373 |
| RRIRGRPPRLPRPRPRPADVPRP | 0.508 |
| RRIRGRPPRLPRPRPRPAEGPRP | 0.335 |
| RRIRGRPPRLPRPRPRPAEIPRP | 0.076 |
| RRIRGRPPRLPRPRPRPAFMPRP | 0.585 |
| RRIRGRPPRLPRPRPRPAFRPRP | 0.749 |
| RRIRGRPPRLPRPRPRPAFSPRP | 0.0169 |
| RRIRGRPPRLPRPRPRPAHKPRP | 0.551 |
| RRIRGRPPRLPRPRPRPAHNPRP | 0.157 |
| RRIRGRPPRLPRPRPRPAHRPRP | 0.224 |
| RRIRGRPPRLPRPRPRPAHSPRP | 0.0755 |
| RRIRGRPPRLPRPRPRPAIPPRP | -0.0508 |
| RRIRGRPPRLPRPRPRPALAPRP | 1.17 |
| RRIRGRPPRLPRPRPRPALEPRP | 1.11 |
| RRIRGRPPRLPRPRPRPALVPRP | 1.02 |
| RRIRGRPPRLPRPRPRPAMHPRP | 1.03 |
| RRIRGRPPRLPRPRPRPAPAPRP | 1.14 |
| RRIRGRPPRLPRPRPRPAPIPRP | 0.586 |

| Sequence | shrunken log2 fold change |
| --- | --- |
| RRIRGRPPRLPRPRPRPAQHPRP | 0.378 |
| RRIRGRPPRLPRPRPRPASEPRP | 1.13 |
| RRIRGRPPRLPRPRPRPASQPRP | 0.76 |
| RRIRGRPPRLPRPRPRPATDPRP | 0.531 |
| RRIRGRPPRLPRPRPRPATRPRP | 0.94 |
| RRIRGRPPRLPRPRPRPAVQPRP | 0.797 |
| RRIRGRPPRLPRPRPRPAWNPRP | 0.378 |
| RRIRGRPPRLPRPRPRPAYLPRP | 0.235 |
| RRIRGRPPRLPRPRPRPAYQPRP | 0.254 |
| RRIRGRPPRLPRPRPRPCADPRP | 1.48 |
| RRIRGRPPRLPRPRPRPCCEPRP | 0.528 |
| RRIRGRPPRLPRPRPRPCDGPRP | 0.123 |
| RRIRGRPPRLPRPRPRPCDLPRP | 0.0268 |
| RRIRGRPPRLPRPRPRPCEYPRP | 0.0669 |
| RRIRGRPPRLPRPRPRPCGAPRP | 1.16 |
| RRIRGRPPRLPRPRPRPCGFPRP | 1.25 |
| RRIRGRPPRLPRPRPRPCHLPRP | -0.0648 |
| RRIRGRPPRLPRPRPRPCKEPRP | -0.0407 |
| RRIRGRPPRLPRPRPRPCKFPRP | 0.125 |
| RRIRGRPPRLPRPRPRPCLAPRP | 0.599 |
| RRIRGRPPRLPRPRPRPCLRPRP | 0.459 |
| RRIRGRPPRLPRPRPRPCMCPRP | 0.263 |
| RRIRGRPPRLPRPRPRPCMMPRP | 0.145 |
| RRIRGRPPRLPRPRPRPCPFPRP | -0.218 |
| RRIRGRPPRLPRPRPRPCPGPRP | -0.0819 |

| Sequence | shrunken log2 fold change |
| --- | --- |
| RRIRGRPPRLPRPRPRPCPHPRP | 0.205 |
| RRIRGRPPRLPRPRPRPCPKPRP | 0.193 |
| RRIRGRPPRLPRPRPRPCPPPRP | 0.284 |
| RRIRGRPPRLPRPRPRPCPSPRP | 0.0189 |
| RRIRGRPPRLPRPRPRPCPVPRP | 0.197 |
| RRIRGRPPRLPRPRPRPCQEPRP | 0.0738 |
| RRIRGRPPRLPRPRPRPCRAPRP | 0.495 |
| RRIRGRPPRLPRPRPRPCTFPRP | 0.0341 |
| RRIRGRPPRLPRPRPRPCTNPRP | 0.247 |
| RRIRGRPPRLPRPRPRPCWAPRP | 0.485 |
| RRIRGRPPRLPRPRPRPCWIPRP | -0.0658 |
| RRIRGRPPRLPRPRPRPCWNPRP | 0.183 |
| RRIRGRPPRLPRPRPRPDAHPRP | 0.421 |
| RRIRGRPPRLPRPRPRPDASPRP | 1.34 |
| RRIRGRPPRLPRPRPRPDDQPRP | 1.92 |
| RRIRGRPPRLPRPRPRPDDYPRP | 0.662 |
| RRIRGRPPRLPRPRPRPDELPRP | 0.955 |
| RRIRGRPPRLPRPRPRPDEYPRP | 0.168 |
| RRIRGRPPRLPRPRPRPDFTPRP | 0.22 |
| RRIRGRPPRLPRPRPRPDGVPRP | 0.368 |
| RRIRGRPPRLPRPRPRPDHCPRP | 0.0254 |
| RRIRGRPPRLPRPRPRPDHEPRP | 0.858 |
| RRIRGRPPRLPRPRPRPDHFPRP | -0.31 |
| RRIRGRPPRLPRPRPRPDHHPRP | -0.0187 |
| RRIRGRPPRLPRPRPRPDIIPRP | 0.188 |

| Sequence | shrunken log2 fold change |
| --- | --- |
| RRIRGRPPRLPRPRPRPDITPRP | 1.01 |
| RRIRGRPPRLPRPRPRPDKCPRP | 0.627 |
| RRIRGRPPRLPRPRPRPDLAPRP | 1.59 |
| RRIRGRPPRLPRPRPRPDLCPRP | 0.445 |
| RRIRGRPPRLPRPRPRPDMHPRP | 0.512 |
| RRIRGRPPRLPRPRPRPDMIPRP | 0.531 |
| RRIRGRPPRLPRPRPRPDNFPRP | 0.169 |
| RRIRGRPPRLPRPRPRPDNTPRP | 0.204 |
| RRIRGRPPRLPRPRPRPDPMPRP | 0.743 |
| RRIRGRPPRLPRPRPRPDPTPRP | 1.06 |
| RRIRGRPPRLPRPRPRPDQIPRP | 0.167 |
| RRIRGRPPRLPRPRPRPDQPPRP | 1.01 |
| RRIRGRPPRLPRPRPRPDRKPRP | 0.051 |
| RRIRGRPPRLPRPRPRPDTKPRP | 0.239 |
| RRIRGRPPRLPRPRPRPDTLPRP | 0.169 |
| RRIRGRPPRLPRPRPRPDVKPRP | 0.356 |
| RRIRGRPPRLPRPRPRPDVNPRP | 0.245 |
| RRIRGRPPRLPRPRPRPDWPPRP | 0.566 |
| RRIRGRPPRLPRPRPRPDWVPRP | 0.287 |
| RRIRGRPPRLPRPRPRPDYGPRP | 0.0184 |
| RRIRGRPPRLPRPRPRPDYLPRP | 0.115 |
| RRIRGRPPRLPRPRPRPEAPPRP | 1.73 |
| RRIRGRPPRLPRPRPRPECDPRP | 2.16 |
| RRIRGRPPRLPRPRPRPEDRPRP | 0.23 |
| RRIRGRPPRLPRPRPRPEFIPRP | 0.131 |

| Sequence | shrunken log2 fold change |
| --- | --- |
| RRIRGRPPRLPRPRPRPEFWPRP | 2.24 |
| RRIRGRPPRLPRPRPRPEFYPRP | 0.0687 |
| RRIRGRPPRLPRPRPRPEGWPRP | 1.99 |
| RRIRGRPPRLPRPRPRPEKEPRP | 0.0374 |
| RRIRGRPPRLPRPRPRPEKHPRP | 0.617 |
| RRIRGRPPRLPRPRPRPEKSPRP | 0.0928 |
| RRIRGRPPRLPRPRPRPELRPRP | 1.71 |
| RRIRGRPPRLPRPRPRPEMAPRP | 2.8 |
| RRIRGRPPRLPRPRPRPEPGPRP | 1.33 |
| RRIRGRPPRLPRPRPRPEPIPRP | 0.296 |
| RRIRGRPPRLPRPRPRPESCPRP | 1.33 |
| RRIRGRPPRLPRPRPRPESWPRP | 1.7 |
| RRIRGRPPRLPRPRPRPEWEPRP | 0.00476 |
| RRIRGRPPRLPRPRPRPEWMPRP | 0.933 |
| RRIRGRPPRLPRPRPRPFAMPRP | 0.68 |
| RRIRGRPPRLPRPRPRPFCKPRP | 0.0671 |
| RRIRGRPPRLPRPRPRPFCMPRP | 0.0902 |
| RRIRGRPPRLPRPRPRPFFQPRP | 0.103 |
| RRIRGRPPRLPRPRPRPFFSPRP | 0.125 |
| RRIRGRPPRLPRPRPRPFFYPRP | 0.539 |
| RRIRGRPPRLPRPRPRPFGIPRP | -0.0144 |
| RRIRGRPPRLPRPRPRPFKIPRP | 0.0381 |
| RRIRGRPPRLPRPRPRPFKMPRP | 0.143 |
| RRIRGRPPRLPRPRPRPFLDPRP | 0.209 |
| RRIRGRPPRLPRPRPRPFLLPRP | 0.206 |

| Sequence | shrunken log2 fold change |
| --- | --- |
| RRIRGRPPRLPRPRPRPFLQPRP | 0.231 |
| RRIRGRPPRLPRPRPRPFLRPRP | -0.0587 |
| RRIRGRPPRLPRPRPRPFLTPRP | 0.0427 |
| RRIRGRPPRLPRPRPRPFMFPRP | 1.16 |
| RRIRGRPPRLPRPRPRPFMYPRP | 0.345 |
| RRIRGRPPRLPRPRPRPFNAPRP | -0.132 |
| RRIRGRPPRLPRPRPRPFNEPRP | -0.231 |
| RRIRGRPPRLPRPRPRPFNHPRP | -0.357 |
| RRIRGRPPRLPRPRPRPFNRPRP | -0.0104 |
| RRIRGRPPRLPRPRPRPFNTPRP | -0.309 |
| RRIRGRPPRLPRPRPRPFPSPRP | 0.142 |
| RRIRGRPPRLPRPRPRPFSGPRP | -0.325 |
| RRIRGRPPRLPRPRPRPFTPPRP | 0.0836 |
| RRIRGRPPRLPRPRPRPFTWPRP | 0.725 |
| RRIRGRPPRLPRPRPRPFVEPRP | 0.236 |
| RRIRGRPPRLPRPRPRPFVRPRP | 0.0432 |
| RRIRGRPPRLPRPRPRPFWAPRP | 0.325 |
| RRIRGRPPRLPRPRPRPFWRPRP | 0.297 |
| RRIRGRPPRLPRPRPRPFWSPRP | 0.679 |
| RRIRGRPPRLPRPRPRPGACPRP | 0.911 |
| RRIRGRPPRLPRPRPRPGATPRP | 1.39 |
| RRIRGRPPRLPRPRPRPGCKPRP | 0.441 |
| RRIRGRPPRLPRPRPRPGESPRP | 0.584 |
| RRIRGRPPRLPRPRPRPGFPPRP | 0.691 |
| RRIRGRPPRLPRPRPRPGFSPRP | 0.644 |
